Experimental findings from PMC6242908 are described below.

For the data set, the target named is MBP-KRIPP11-His6 (Trypanosoma brucei) (UniProt Q57YK5). The experiment in a line: fluorescence anisotropy. The note with it: FA: 20 mM Tris-HCl pH 7.5, 150 mM KCl, 5 mM MgCl2, 1 mM DTT, 20 nM RNA/DNA, 25 C, EMSA: same buffer with BSA and RNAsin, 150 nM RNA/DNA, 2% tris-glycine …. Background: Fluorescence polarisation rises when a labelled molecule tumbles more slowly, as on binding a larger partner.

As to GGGG [G4 RNA], the equilibrium dissociation constant (Kd) (commonly the constant that tells how readily two partners part at equilibrium) came to 3420 nM. As for GGGGCCUUUAAA [G4C2U3A3], the Kd was 2210 nM.

With GGGGGG [G6 RNA], the dissociation constant Kd amounted to 1070 nM.

The sequence GGGGGGCCUUAA [G6C2U2A2] had a Kd of 930 nM. The sequence GGGGGGGGG [G9 RNA] returned a Kd of 1870 nM.

GGGGGGGGGGGG [G12 RNA (native)] displayed a Kd of 660 nM.

Consider GGGGGGGGGGGG [dG12], for which the Kd (DNA) amounted to 1880 nM. The sequence GGUGGUGGUGGU [(GGU)4] displayed an equilibrium dissociation constant (Kd) of 6550 nM.
